± gives the standard deviation.
Assay: protein stability index of a GFP-peptide fusion (GPS, HEK-293T) (PSI 1-6); higher = more stable
[1] = treatment: DMSO, c terminus: a fixed tail appended
[2] = treatment: MLN4924 1 uM, 8 h, c terminus: a fixed tail appended
[3] = treatment: DMSO, c terminus: native
[4] = treatment: MLN4924 1 uM, 8 h, c terminus: native
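Note: 24-mer peptide tiles fused after GFP, lentivirally expressed, FACS-sorted into six equal bins by GFP/DsRed ratio, decoded by Illumina sequencing, PSI is the read-weighted mean bin number.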

Sequence TLSDWAAAVESVLHLGLPWRMLRP [PPEF2] has a protein stability index [1] of 3.1 ± 0.84 and a protein stability index [2] of 2.48 ± 0.37.
TLSFIVDGQYLGVAFRGLKGKKLY [SPSB4] gave a protein stability index [1] of 2.16 ± 0.41 and a protein stability index [2] of 2.31 ± 0.31.
For TNDRTASQGQWGRAWEVDWFSLAS [DHCR7], the protein stability index [1] was 2.61 ± 0.56 and the protein stability index [2] was 2.68 ± 0.33.
For TNITEVDAASVYTLPAGADFLMCY [CASP6], the protein stability index [1] was 2.35 ± 0.34 and the protein stability index [2] was 2.18 ± 0.25.
Sequence TNKMKSPETKQRKLSPLRLSVSNN [KMT2E] has a protein stability index [1] of 4.45 ± 0.18 and a protein stability index [2] of 4.41 ± 0.083.
TPAFMFRLDASTSHQNLRVDDLSV [FSD1] showed a protein stability index [1] of 2.9 ± 0.28 and a protein stability index [2] of 3.07 ± 0.31.
Work on TPKSGEPRVPEEAAQDRPMSPGDC [YJU2B] yielded a protein stability index [1] of 5.49 ± 0.24 and a protein stability index [2] of 5.42 ± 0.25.
In the case of TPVIAATPVPTITANVTSVPVPPA [BRD3], the protein stability index [1] is reported as 4.53 ± 0.23 and the protein stability index [2] is reported as 4.52 ± 0.047.
Work on TSCAGNLPSRPPPLLSPLLASRNP [RSPH3] yielded a protein stability index [1] of 3.45 ± 0.22 and a protein stability index [2] of 3.61 ± 0.32.
Work on TSLKTKFPAEQYYRFHEHWRFVLQ [TSN] yielded a protein stability index [1] of 2.34 ± 0.19 and a protein stability index [2] of 2.54 ± 0.16.
TSPYSDPVVSMDLDPQPITDEEEG [PTPRD] showed a protein stability index [1] of 5.63 ± 0.19 and a protein stability index [2] of 5.61 ± 0.095.
TVAMSTLNFCGPNVINHFYCDLPQ [OR3A1] showed a protein stability index [1] of 2.39 ± 0.47 and a protein stability index [2] of 2.22 ± 0.17.
Sequence TVANDVMLRTGLGVIRMWADEGSR [NETO1] has a protein stability index [1] of 2.61 ± 0.11 and a protein stability index [2] of 2.77 ± 0.21.
Work on TVEPRLLVADLLYWKDTRTSGVVF [RTN2] yielded a protein stability index [1] of 2.97 ± 0.61 and a protein stability index [2] of 2.98 ± 0.6.
For TVGDLGIVRRRSRDVPESPQHAAD [YJU2B], the protein stability index [1] was 5.08 ± 0.25 and the protein stability index [2] was 5.3 ± 0.17.
Work on TVKLLVEEKADVLARGPLNQTALH [RIPK4] yielded a protein stability index [1] of 3.35 ± 0.58 and a protein stability index [2] of 3.4 ± 0.37.
For TVVTGLGPDTQDLEGQSPPQSLPS [PBXIP1], the protein stability index [1] was 5.07 ± 0.34 and the protein stability index [2] was 5.16 ± 0.098.
In the case of VAASPAPAGERRIYRHRIPSTICF [ZNF511], the protein stability index [1] is reported as 2.51 ± 0.18 and the protein stability index [2] is reported as 2.48 ± 0.21.
For VAEPLAGPACVTVILPSCVPYNK [KLHL14], the protein stability index [3] was 2.32 ± 0.37 and the protein stability index [4] was 2.36 ± 0.32.
For VAFRGLKGKKLYPVVSAVWGHCEV [SPSB4], the protein stability index [1] was 1.83 ± 0.46 and the protein stability index [2] was 2.71 ± 0.2.
Work on VATWAIFVHRVGQPSIGGKLSPL [CTBP1-DT] yielded a protein stability index [3] of 3.12 ± 0.21 and a protein stability index [4] of 2.92 ± 0.47.
VCGHTLCESCVDLLFVRGAGNCPE [MNAT1] showed a protein stability index [1] of 2.64 ± 0.42 and a protein stability index [2] of 2.87 ± 0.53.
Sequence VCMDLRANLKQVKKEDTEKERDLR [TNNI2] has a protein stability index [1] of 4.71 ± 0.18 and a protein stability index [2] of 4.77 ± 0.4.
With VCTFTYLLVGAAVFDALESDHEMR [KCNK9] the protein stability index [1] was 2.9 ± 0.7 and the protein stability index [2] was 2.85 ± 0.15.
In the case of VDATLEHVQDPQNTVKVQVLYPDG [INTS4], the protein stability index [1] is reported as 4.37 ± 0.12 and the protein stability index [2] is reported as 4.49 ± 0.15.
With VDDHTPWVKGSVPPPLDQYVKFDA [CLPTM1] the protein stability index [1] was 3.99 ± 0.15 and the protein stability index [2] was 3.74 ± 0.24.
Work on VDPANDTFDIDPMVVTDCIQVDPP [MCOLN1] yielded a protein stability index [1] of 5.09 ± 0.38 and a protein stability index [2] of 5.22 ± 0.28.
In the case of VEGRKHVDVQTELYLEEIADRIIE [RSPH3], the protein stability index [1] is reported as 2.55 ± 0.33 and the protein stability index [2] is reported as 2.77 ± 0.41.
Sequence VELPCRISPGKNATGMEVGWYRPP [MOG] has a protein stability index [1] of 2.33 ± 0.091 and a protein stability index [2] of 2.32 ± 0.28.
In the case of VFDSEKCVSIPDVVGWFVLFYKPG [GULP1], the protein stability index [1] is reported as 2.8 ± 1 and the protein stability index [2] is reported as 2.83 ± 0.33.
VFIDFSVYNANINLFCVLRLVVEF [PKD2L1] gave a protein stability index [1] of 3.51 ± 0.61 and a protein stability index [2] of 2.7 ± 0.4.
Sequence VGGGSGDEASAATPPSSRRVWSPP [ZBTB22] has a protein stability index [1] of 4.66 ± 0.2 and a protein stability index [2] of 4.76 ± 0.34.
VGVATADAPLHSVGYTTLVGNNHE [SPSB1] gave a protein stability index [1] of 4.25 ± 0.45 and a protein stability index [2] of 4.16 ± 0.19.
Work on VILNYPSPWDQEERPAQRDCSFPG [TRAF3IP2] yielded a protein stability index [1] of 2.79 ± 0.21 and a protein stability index [2] of 3.15 ± 0.25.
Work on VIMWDIGGRKGTAIELQGHNDRVQ [WDFY2] yielded a protein stability index [1] of 2.57 ± 0.64 and a protein stability index [2] of 2.45 ± 0.17.
With VKEWFGLGGEQAEEKAFESVIEPV [MIA2] the protein stability index [1] was 4.23 ± 0.23 and the protein stability index [2] was 4.04 ± 0.15.
VKISDFGLAKCNGLSHSHDLSMDG [RIPK4] gave a protein stability index [1] of 2.95 ± 0.42 and a protein stability index [2] of 3.23 ± 0.37.
With VKTSVPSSKSSGDLVDLFDGTSQS [CLINT1] the protein stability index [1] was 4.71 ± 0.24 and the protein stability index [2] was 4.8 ± 0.18.
Sequence VLEMFDLRMMVENIMNKEAFMNQE [RHOBTB1] has a protein stability index [1] of 2.47 ± 0.45 and a protein stability index [2] of 2.33 ± 0.26.
In the case of VLITVEDVNDNSPELTITSLFSPV [PCDHGA10], the protein stability index [1] is reported as 2.3 ± 0.49 and the protein stability index [2] is reported as 2.07 ± 0.19.
For VLPHVPLGVIQRDLAKTGCVDLTI [AUP1], the protein stability index [1] was 2.14 ± 0.25 and the protein stability index [2] was 2.37 ± 0.37.
VLPKPKVISCLEQGEEPWVQVSPE [ZNF75A] gave a protein stability index [1] of 4.21 ± 0.23 and a protein stability index [2] of 4.07 ± 0.3.
Sequence VLQDRAAKGSLGTQIGFADLMGVL [FEM1A] has a protein stability index [1] of 2.15 ± 0.31 and a protein stability index [2] of 2.22 ± 0.35.
VLYPDGQAQMIHPKPADFRNPGPG [INTS4] gave a protein stability index [1] of 3.59 ± 0.098 and a protein stability index [2] of 3.67 ± 0.3.
VNADIEKVNQNQAKRCTVIGGSGF [NSDHL] gave a protein stability index [1] of 3.79 ± 0.2 and a protein stability index [2] of 3.87 ± 0.19.

Source: the supplement of paper PMC10567573
